How the values were obtained:
[1] = target: SlSuSy3^S11A (SuSy3 protein with the serine at position 11 mutated to alanine)
[2] = target: SuSy3-HIS protein (tomato sucrose synthase SuSy3, Solyc07g042550.2.1, His-tagged, expressed in vitro and purified)
Sequence of SuSy3-HIS protein (tomato sucrose synthase SuSy3, Solyc07g042550.2.1, His-tagged, expressed in vitro and purified) (chain, as listed by the source): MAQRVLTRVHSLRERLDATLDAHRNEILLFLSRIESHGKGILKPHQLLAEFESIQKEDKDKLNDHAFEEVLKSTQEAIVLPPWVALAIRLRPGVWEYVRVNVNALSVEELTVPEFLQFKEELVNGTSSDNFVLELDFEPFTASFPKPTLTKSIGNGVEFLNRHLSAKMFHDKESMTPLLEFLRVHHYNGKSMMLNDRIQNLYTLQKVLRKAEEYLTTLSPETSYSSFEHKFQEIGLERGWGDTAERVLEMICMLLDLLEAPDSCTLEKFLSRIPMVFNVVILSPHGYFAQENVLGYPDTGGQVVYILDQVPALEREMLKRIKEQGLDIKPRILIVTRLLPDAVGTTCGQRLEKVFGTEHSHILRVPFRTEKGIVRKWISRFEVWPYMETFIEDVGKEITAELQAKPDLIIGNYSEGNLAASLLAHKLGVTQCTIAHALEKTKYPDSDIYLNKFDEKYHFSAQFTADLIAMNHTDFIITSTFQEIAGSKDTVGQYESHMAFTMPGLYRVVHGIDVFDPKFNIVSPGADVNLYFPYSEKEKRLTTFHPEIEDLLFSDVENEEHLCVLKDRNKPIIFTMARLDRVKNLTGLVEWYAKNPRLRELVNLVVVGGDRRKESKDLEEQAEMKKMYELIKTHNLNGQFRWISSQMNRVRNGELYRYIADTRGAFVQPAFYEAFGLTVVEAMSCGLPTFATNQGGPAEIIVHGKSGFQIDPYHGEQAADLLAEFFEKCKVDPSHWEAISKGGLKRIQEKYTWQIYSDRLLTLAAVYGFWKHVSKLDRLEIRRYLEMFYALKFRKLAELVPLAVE

Sequence of SlSuSy3^S11A (SuSy3 protein with the serine at position 11 mutated to alanine) (chain, as listed by the source S11A): as the sequence (chain, as listed by the source) above, with S11A counted along it

Row | Protein | in vitro phosphorylation assay (autoradiography) [1] | in vitro phosphorylation (gamma-32P-ATP, SDS-PAGE, autoradiography) [2] | in vitro phosphorylation assay (autoradiography) [2] | mass spectrometry of phosphorylated residues after co-incubation [2]
1 | CDPK8-HIS protein (tomato calcium-dependent protein kinase 8, Solyc11g065660, His-tagged, expressed in vitro and purified) (protein) MGNCCGTPGNSSENKKKKNKPNPFALDYGATQASGGDGNKLVVLKDPTGHNIQEKYDLGCELGRGEFGVTYLCTDVDTGDKYACKSISKKKLRTAVDIDDVRREVEIMKHLPKHPNIVTLKDTYEDDNAVHIVMELCEGGELFDRIVARGHYTERAAAVIMKTIVEVVQMCHMHGVMHRDLKPENFLFGNKKETAPLKAIDFGLSVFFKPGERFNEIVGSPYYMAPEVLKRNYGPEVDVWSAGVILYILLCGVPPFWAETEQGVAQAIIRSVVDFKRDPWPKVSDNAKDLVKKMLDPDPTRRLTAQQVLEHTWLQNIKKAPNVSLGETVKARLKQFSVMNKLKKRALTIMAEFLSAEEVAGMKDAFDMMDTGKKGKINLGELKNGLQKLGHQIPDVDLQILMEAADVDGDGSLNYGEFVAVSVHLRKMANDEHLHKAFSVFDRDQSGYIEIEELRSALSDEDGGNSEEVINAIMHDVDTDKDGRISYEEFAAMMKAGTDWRKASRQYSRERFNSLSLKLMRDGSIQVGKEEGR | there is no autoradiographic band, indicating that CDPK8 cannot phosphorylate SISuSy3^S11A | the CDPK8 protein itself has kinase activity and can phosphorylate the SuSy3 protein | CDPK8 can phosphorylate the serine at position 11 (S11) of the SuSy3 protein | 14 amino acid residues on the SuSy3 protein can be phosphorylated by CDPK8 protein, and the sites are T7, S11, T19, S152, S165, S174, T176, S191, S219, S360, T430, S535, T543, and S706 in sequence
2 | mCDPK8-His protein without kinase activity (CDPK8 lacking two key amino acids) (protein) MGNCCGTPGNSSENKKKKNKPNPFALDYGATQASGGDGNKLVVLKDPTGHNIQEKYDLGCERGEFGVTYLCTDVDTGDKYACKSISKKKLRTAVDIDDVRREVEIMKHLPKHPNIVTLKDTYEDDNAVHIVMELCEGGELFDRIVARGHYTERAAAVIMKTIVEVVQMCHMHGVMHRDLKPENFLFGNKKETAPLKAIDFGLSVFFKPGERFNEIVGSPYYMAPEVLKRNYGPEVDVWSAGVILYILLCGVPPFWAETEQGVAQAIIRSVVDFKRDPWPKVSDNAKDLVKKMLDPDPTRRLTAQQVLEHTWLQNIKKAPNVSLGETVKARLKQFSVMNKLKKRALTIMAEFLSAEEVAGMKDAFDMMDTGKKGKINLGELKNGLQKLGHQIPDVDLQILMEAADVDGDGSLNYGEFVAVSVHLRKMANDEHLHKAFSVFDRDQSGYIEIEELRSALSDEDGGNSEEVINAIMHDVDTDKDGRISYEEFAAMMKAGTDWRKASRQYSRERFNSLSLKLMRDGSIQVGKEEGR | – | the mCDPK8 protein lacking two key amino acids has no kinase activity and cannot phosphorylate the SuSy3 protein | – | –
